# Data published in patent US20140113831A1 (published 2014).
# T1: human PDGFRb (human, UniProt P09619 33-531)
# T1 chain: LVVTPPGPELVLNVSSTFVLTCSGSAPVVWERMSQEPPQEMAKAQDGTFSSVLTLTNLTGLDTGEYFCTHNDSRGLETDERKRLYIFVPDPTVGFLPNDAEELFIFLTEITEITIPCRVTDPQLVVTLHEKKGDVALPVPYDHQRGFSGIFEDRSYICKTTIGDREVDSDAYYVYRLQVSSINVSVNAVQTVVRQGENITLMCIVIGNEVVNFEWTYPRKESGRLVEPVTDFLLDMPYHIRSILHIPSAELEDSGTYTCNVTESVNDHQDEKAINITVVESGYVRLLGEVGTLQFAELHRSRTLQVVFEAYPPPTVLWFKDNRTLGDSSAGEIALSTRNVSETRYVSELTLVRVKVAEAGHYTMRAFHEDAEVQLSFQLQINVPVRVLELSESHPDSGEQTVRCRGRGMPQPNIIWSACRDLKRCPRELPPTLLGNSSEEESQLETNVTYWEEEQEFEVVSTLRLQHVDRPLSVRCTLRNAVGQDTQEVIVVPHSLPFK
# Biological target: T1, human PDGFRb
# Experiment: solution binding affinity (35S Met labeled)
binder,measurement,value
"scFv XB2202-A4 (scFv, V domains shown) VH: QVQLVQSGAEVKKPGSSVRVSCKASGGTFSRHAISWVRQAPGQGLEWIGGILPILKTPNYAQRFQGRVTINADESTSTVYMEMSSLRSEDTAVYYCATHGGDRSYWGQGTLVTVSS VL: DVVMTQSPSSLSASVGDRVTITCQASQDISNWLNWYQQKPGKAPKLLIYEASNLETGVPSRFSGSGSGTDFTFTISSLQPEDIATYYCQQYNNVLRTFGQGTKVEIK",Kd,0.03 nM
